According to patent US20160046707A1 (EISAI R AND D MANAGEMENT, published 2016):
Read-outs that look alike come from different tables or passages of the source.

T1: cynomolgus CCL20-secreted alkaline phosphatase (SEAP) fusion (cynomolgus monkey)
T1 construct: also called cCCL20; cynomolgus CCL20-SEAP; not shown: the SEAP reporter (cDNA from Clontech pSEAP-Enhancer) and its junction to CCL20
T1 chain: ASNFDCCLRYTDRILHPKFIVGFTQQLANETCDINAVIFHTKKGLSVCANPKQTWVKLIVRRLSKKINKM

T2: rhesus CCL20-secreted alkaline phosphatase (SEAP) fusion (rhesus monkey)
T2 construct: also called rCCL20; rhesus CCL20-SEAP; not shown: the SEAP reporter (cDNA from Clontech pSEAP-Enhancer) and its junction to CCL20
T2 chain: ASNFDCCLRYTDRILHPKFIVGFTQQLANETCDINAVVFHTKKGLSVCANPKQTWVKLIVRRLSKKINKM

T3: mouse CCL20-secreted alkaline phosphatase (SEAP) fusion (mouse, UniProt O89093 28-97)
T3 construct: Expressed in HEK293E, used as culture supernatant; also called SEAP-tagged mouse CCL20; mCCL20; not shown: secreted alkaline phosphatase (SEAP), cDNA from pSEAP-Enhancer vector (Clontech)
T3 sequence: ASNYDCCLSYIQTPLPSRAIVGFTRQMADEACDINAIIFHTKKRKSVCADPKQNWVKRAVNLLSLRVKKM

T4: recombinant human CCL16 (human, UniProt O15467 24-120)
T4 construct: also called HCC-4
T4 sequence (looked up): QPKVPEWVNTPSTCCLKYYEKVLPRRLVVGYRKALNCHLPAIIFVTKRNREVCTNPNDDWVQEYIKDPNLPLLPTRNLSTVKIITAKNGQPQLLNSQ


Experiments:
[1] = molecular target: T1, cynomolgus CCL20-secreted alkaline …; assay: ELISA on CCL20-SEAP, Abs 450; x axis 'ug/ml' in 4-fold steps down from 10, taken as the antibody concentration as in FIG. 11C
[2] = molecular target: T2, rhesus CCL20-secreted alkaline …; assay: as above
[3] = molecular target: rat CCL20-secreted alkaline phosphatase (SEAP) fusion (rat, UniProt P97884 27-96; P05187 23-511); assay: as above
[4] = molecular target: T5, human CCL20-secreted alkaline phosphatase (SEAP) fusion (human, UniProt P78556 27-96); assay: as above
T5 construct: also called hCCL20; human CCL20-SEAP; not shown: secreted alkaline phosphatase (SEAP), cDNA from pSEAP-Enhancer vector (Clontech)

[5] = molecular target: T3, mouse CCL20-secreted alkaline …; assay: ELISA (fluorescent HRP substrate): CCL20-SEAP captured on anti-alkaline phosphatase in 5-fold dilutions from 20 nM (x axis, nM), antibody at 1 ug/ml
Description: To test whether the chimeric and humanized antibodies can bind to mouse, cynomolgus, or rhesus macaque CCL20 orthologs, we used ELISA assays as illustrated in FIG. 15. Recombinant secreted alkaline phosphatase (SEAP)-chemokine fusion proteins were engineered as described in Example 2, expressed and purified for all of the CCL20 orthologs tested. Nunc MaxiSorb flat-bottom black plates were coated with 1 μg/ml mouse anti-placental alkaline phosphatase antibody (Pierce, cat# MA1-19354) in 50 mM sodium bicarbonate, pH 9.4, overnight at 4° C. Plates were then blocked using 1× phosphate buffered saline with Tween-20 (PBST) with 5% bovine serum albumin (BSA) for 2 hours at room temperature. 20 nM SEAP-CCL20 fusion proteins were serially diluted 5-fold in Opti-MEM medium (Invitrogen). Chimeric and humanized (HC2/LC3 and HC2/LK3) antibodies were diluted to 1 μg/ml in 1×PBST with 5% BSA, added to the plates, and incubated for 1 hr at room temperature. The plates were then washed with 1×PBST with 5% BSA three times. […] QuantaBlu fluorescent HRP substrate (Pierce cat#15169) was added for detection of bound antibody by measuring fluorescence in a Molecular Devices M5 (Excitation 325 nm/Emission 420 nm) plate reader.
While the hamster anti-mouse CCL20 antibody 2F5-5 MAb bound mouse CCL20 with a 50% effective dose (EC₅₀) of 64 pM (data not shown), neither the chimeric nor humanized anti-human CCL20 antibodies bound detectably to mouse CCL20 or rat CCL20 under the conditions described above. By contrast, both the chimeric and humanized antibodies effectively bound to human, rhesus, and cynomolgus CCL20 (FIGS. 16A-C, 17A and B).

[6] = molecular target: T4, recombinant human CCL16; assay: ELISA, plate-bound chemokine (1 ug/ml), antibody 10 ug/ml, OD450
Description: The wells of a 96-well plate were coated with 1 μg/ml of the recombinant human chemokines in PBS (−). After overnight incubation at 4° C., the wells were blocked with 1× Block-Ace (Dainippon Sumitomo Pharma, UK-B80) for 1 hour at room temperature. After washing twice with 0.02% Tween 20/PBS (−), we added 50 μl of 10 μg/ml purified 36F7C10, chimeric 36F710, HC2/LK3, or HC2/LC3 in 0.02% Tween 20/PBS (−) to each well. The wells were incubated for 1 hour at room temperature and washed three times as described in Example 3. […] After washing five times, a TMBZ (3,3′,5,5′-tetramethylbenzidine) solution (1%, in N,N-Dimethylformamide) was added to the wells and incubated for 15-30 minutes. The reaction was stopped by adding an equal volume of a 2 M H₂SO₄ stopping solution, and the optical density was read at 450 nm by ARVO (PerkinElmer).

[7] = molecular target: T1, cynomolgus CCL20-secreted alkaline …; assay: ELISA on CCL20-SEAP, Abs 450; x axis 'ug/ml' in 4-fold steps down from 10, taken as the antibody concentration as in FIG. 11C
[8] = molecular target: T2, rhesus CCL20-secreted alkaline …; assay: as above
[9] = molecular target: T5, human CCL20-secreted alkaline …; assay: as above; remark: listed apart in the source

T5 sequence (P78556 27-96): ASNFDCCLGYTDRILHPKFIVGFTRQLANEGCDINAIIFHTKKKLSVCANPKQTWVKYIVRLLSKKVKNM
Chain of rat CCL20-secreted alkaline phosphatase (SEAP) fusion (P97884 other isoform, or with tags, fused parts or gaps): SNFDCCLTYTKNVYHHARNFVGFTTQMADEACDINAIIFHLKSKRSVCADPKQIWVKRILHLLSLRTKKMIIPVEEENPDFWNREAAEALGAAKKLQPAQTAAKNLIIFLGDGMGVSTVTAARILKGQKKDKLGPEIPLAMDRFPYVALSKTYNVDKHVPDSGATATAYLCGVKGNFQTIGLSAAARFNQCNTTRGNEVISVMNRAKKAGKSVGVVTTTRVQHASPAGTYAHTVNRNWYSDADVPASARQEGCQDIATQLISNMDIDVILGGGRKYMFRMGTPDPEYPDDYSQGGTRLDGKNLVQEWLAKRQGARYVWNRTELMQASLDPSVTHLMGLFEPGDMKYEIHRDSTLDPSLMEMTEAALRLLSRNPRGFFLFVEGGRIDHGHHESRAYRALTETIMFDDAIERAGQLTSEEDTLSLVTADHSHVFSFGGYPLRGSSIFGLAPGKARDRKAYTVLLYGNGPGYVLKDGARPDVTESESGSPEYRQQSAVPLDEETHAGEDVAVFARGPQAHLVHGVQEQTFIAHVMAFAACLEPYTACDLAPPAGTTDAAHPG

Row | Binder | EC50 (read off the curve) [1] [µg/mL] | EC50 (read off the curve) [2] [µg/mL] | binding result [3] | EC50 (read off the curve) [4] [µg/mL] | binding result [5] | binding result [6] | EC50 (read off the curve) [7] [µg/mL] | EC50 (read off the curve) [8] [µg/mL] | EC50 (read off the curve) [9] [µg/mL]
1 | humanized anti-human CCL20 antibody 36LK3/36HC2 (antibody, human IgG1, kappa, V domains shown, expressed in HEK293 cells; also called HC2/LK3; HC2LK3) VH: QVQLVQSGAEVKKPGASVKVSCKASGYTFTNYWMHWVRQAPGQGLEWMGVIDPSDSYTTYAQKFQGRVTMTVDTSTSTVYMELSSLRSEDTAVYYCARGNYGVDYAMDYWGQGTLVTVSS VL: DIQMTQSPSSLSASVGDRVTITCGASENIYGALNWYQRKPGKAPKLLIYGATNLADGVPSRFSGSGSGRDYTLTISSLQPEDFATYYCQNVLITPYTFGQGTKLEIKR | ~0.02 | ~0.02 | no binding (tested: 10 ug/ml) | ~0.02 | no binding (tested: 20 nM) |  |  |  | 
2 | humanized anti-human CCL20 antibody 36LC3/36HC2 (antibody, human IgG1, kappa, V domains shown, expressed in HEK293 cells; also called HC2/LC3; HC2LC3) VH: QVQLVQSGAEVKKPGASVKVSCKASGYTFTNYWMHWVRQAPGQGLEWMGVIDPSDSYTTYAQKFQGRVTMTVDTSTSTVYMELSSLRSEDTAVYYCARGNYGVDYAMDYWGQGTLVTVSS VL: DIQMTQSPSSLSASVGDRVTITCRASENIYGALNWYQQKPGKAPKLLIYGATNLADGVPSRFSGSGSGRQYSLTISSLQPEDFATYYCQNVLITPYTFGGGTKLEIKR | ~0.02 | ~0.02 | no binding (tested: 10 ug/ml) | ~0.02 | no binding (tested: 20 nM) | no binding (tested: 10 ug/ml) |  |  | 
3 | mouse anti-human CCL20 monoclonal antibody 36F7C10 (antibody, V domains shown, Mouse hybridoma antibody; also called MouseMAb; parental mouse clone 36F7C10) VH: QVQLQQPGAELVKPGASVKMSCKASGYTFTNYWMHWVKQRPGQGLEWIGVIDPSDSYTTYNQKFKGKATLTVDTSSSTAYMQLSSLTSEDSAVYYCTRGNYGVDYAMDYWGQGTSVTVSS VL: DIQMTQSPASLSASVGETVTITCGASENIYGALNWYQRKQGKSPQLLIYGATNLADGMSSRFSGSGSGRQYSLKISSLHPDDVATYYCQNVLITPYTFGGGTKLEIK |  |  |  |  |  | no binding (tested: 10 ug/ml) | ~0.009 | ~0.01 | ~0.009
4 | chimeric 36F7C10 antibody (36F7C10-hFc) (antibody, V domains shown, also called chimeric 36F710; Chimeric MAb) VH: QVQLQQPGAELVKPGASVKMSCKASGYTFTNYWMHWVKQRPGQGLEWIGVIDPSDSYTTYNQKFKGKATLTVDTSSSTAYMQLSSLTSEDSAVYYCTRGNYGVDYAMDYWGQGTSVTVSS VL: DIQMTQSPASLSASVGETVTITCGASENIYGALNWYQRKQGKSPQLLIYGATNLADGMSSRFSGSGSGRQYSLKISSLHPDDVATYYCQNVLITPYTFGGGTKLEIK |  |  |  |  | no binding (tested: 20 nM) |  | ~0.03 | ~0.03 | ~0.03
